Measured values reported in patent US20240400717A1, “Antibody Binding to CHI3L1 for Treating Cancer” (National Cheng Kung University, priority 2021, published 2024).

Legend:
[1] = target: CHI3L1-receptor(s) interaction on HCT116, SW480, SW620, PANC1 and MiaPaCa-2 (Homo sapiens, UniProt P36222); test: Flow cytometry blockage of rCHI3L1-receptor(s) interaction, colorectal and pancreatic cancer cell lines; type: cell-based; conditions: HCT116, SW480, SW620, PANC1, MiaPaCa-2, flow cytometry
Experimental: CHI3L1 have been reported to interact with several receptors on cancer cells, and trigger downstream signaling for cancer cell growth, proliferation and anti-apoptosis (Kamba et al. 2013; Lee et al. 2016). […] His-tagged rCHI3L1 was added for CHI3L1-receptor(s) interaction. Anti-His antibody AHAb with fluorescent F recognized CHI3L1-receptor(s) R complex for detection (left, FIG. 4A). Once fully human mAbs (nCHI3L1 Ab) blocked the CHI3L1-receptor(s) interaction, the fluorescent F signals were decreased (right, FIG. 4A) and cell signaling CS was blockade.
(§1) Four selected clones of mAbs including R4-4, R4-54, 293R3-2, and 293R3-4 were further tested for blocking effect on human colorectal (HCT116, SW480, and SW620) and pancreatic cancer cell lines (PANC1 and MiaPaCa-2). […] P values were determined by one-way ANOVA. * P<0.05, ** P<0.01, *** P<0.001, **** P<0.0001. For binding specificity examination, we further coated different concentration of recombinant CHI3L1 protein, and two other major proteins in chitinase family including human chitotriosidase-1 (CHIT1) and CHI3L2 from 2.5 μg/ml to 0 μg/ml, on 96-well plate.

[2] = target: recombinant CHI3L1 protein (Homo sapiens, UniProt P36222); test: ELISA binding specificity, CHI3L1; conditions: mAbs 1 μg/ml; coated protein 2.5 μg/ml to 0 μg/ml
Experimental: as §1

[3] = target: human chitotriosidase-1 (CHIT1) (Homo sapiens, UniProt Q13231); test: ELISA binding specificity, CHIT1; conditions: mAbs 1 μg/ml; coated protein 2.5 μg/ml to 0 μg/ml
Experimental: as §1

PANC1 cells = test: Immunoblot of rCHI3L1-induced AKT and ERK phosphorylation, PANC1; type: cell-based, human; conditions: PANC1, rCHI3L1 100 ng/ml, 20 minutes, different dose of mAbs
Experimental: (§2) The involvement of CHI3L1 in intracellular signaling pathways has been reported. For example, CHI3L1 binding to CD44 activates protein kinase B (AKT) and extracellular signal-regulated kinase (ERK) signaling to promote cancer progression (Chen, Jiang et al. 2021). Thus, we tested whether mAb clones R4-4, R4-54, 293R3-2, and 293R3-4 could attenuate AKT and ERK phosphorylation in human pancreatic (PANC1), colorectal (HCT116), and lung (A549) cancer cell lines. PANC1 cells were treated with rCHI3L1 (100 ng/ml) only or rCHI3L1 with different dose of mAbs as indicated for 20 minutes.

HCT116 and A549 cells = test: Immunoblot of rCHI3L1-induced AKT and ERK phosphorylation, HCT116 and A549; type: cell-based, human; conditions: HCT116 and A549, time course
Experimental: as §2

SW480 and SW620 cells = test: rCHI3L1-induced foci formation; type: cell-based, human
hCHI3L1/flag-His [4] = target: T1, hCHI3L1/flag-His (Homo sapiens, UniProt P36222); test: ForteBio biolayer interferometry binding analysis; conditions: for koff / kon: mAb loaded on AHC sensor, analyte hCHI3L1
T1 construct: human CHI3L1 extracellular domain fused with flag and His tag
Experimental: Anti-CHI3L1 mAbs were loaded at 5 μg/mL on AHC (Anti-Human IgG Fc Capture, ForteBio, Cat #18-5060) for signal reach to approximate 0.5 nm. Sensors then were exposed to human CHI3L1 extracellular domain fused with flag and His tag recombinant protein, hCHI3L1/flag-His, solutions at 10 nM with 2 time serial dilution for 7 concentrations. Measurement were performed as follows: 1 min baseline in kinetic buffer, 5 minute association in 7 different concentrations hCHI3L1/flag-His and 5 minute dissociation into kinetic buffer. The kinetic parameters were calculated and produced by Octet Data Acquisition and Analysis Software.

hCHI3L1/flag-His [5] = target: T1, hCHI3L1/flag-His; test: In tandem epitope binning on Octet Red96; type: binding; conditions: for epitope cluster: among four anti-CHI3L1 mAbs; for competitive binding class, CHI3L1 293R3-2: paired with CHI3L1 293R3-2; for Epitope Binning Heat Map value, CHI3L1 293R3-2: paired with CHI3L1 293R3-2, 100 nM each; for competitive binding class, CHI3L1 293R3-4: paired with CHI3L1 293R3-4; for Epitope Binning Heat Map value, CHI3L1 293R3-4: paired with CHI3L1 293R3-4, 100 nM each; for competitive binding class, CHI3L1 R4-4: paired with CHI3L1 R4-4; for Epitope Binning Heat Map value, CHI3L1 R4-4: paired with CHI3L1 R4-4, 100 nM each; for competitive binding class, CHI3L1 R4-54: paired with CHI3L1 R4-54; for Epitope Binning Heat Map value, CHI3L1 R4-54: paired with CHI3L1 R4-54, 100 nM each
Experimental: In order to know the epitopic coverage for those four antibodies to increase the success of therapeutic CHI3L1 antibody development, epitope binning is used to characterize the binding site of mAbs to the corresponding antigen and summarized in the Table 4. In epitope binning, mAbs specific to the same target protein are tested pairwise against all mAbs in a set to assess whether they block one another's binding to a specific site of the antigen or not. The mAbs that block binding to the same epitope are “binned” together. mAbs within the same bin often function similarly, so epitope bins can narrow down the choices to fewer candidates for investigators to choose from. The in tandem epitope binning assay conducted on Octet Red96 comprised a five-step binding cycle; 1) a buffer baseline was established for 30 sec, 2) 100 nM hCHI3L1/flag-His was captured for 5 min, 3) 100 nM mAb array was loaded to saturate the captured antigen for 10 min, 4) 100 nM of the test mAb was bound for 5 min, and 5) the capture surfaces were regenerated for 30 sec. Anti-His surfaces were regenerated with 10 mM glycine pH 1.7. Raw data was processed using ForteBio's Data Analysis HT Software 11.1 and the antibody pairs were assessed for competitive binding. Additional binding by the second antibody indicates an unoccupied epitope (non-competitor, marked as *c in Table 4), while no binding indicates epitope blocking (competitor, marked as *b in Table 4) and self-competing antibodies were marked as *a in Table 4. Among four anti-CHI3L1 mAbs, there are two epitope clusters.

MiaPaCa cells = test: MiaPaCa orthotopic NOD-SCID mice model; conditions: for level of CHI3L1 in intratumoral region and plasma: end of experiment; for infiltrated macrophages in tumor sections (F4/80+, CD206+): immunofluorescence; for angiogenesis indicated by CD31 expression / tumor size: mAb 5 mg/kg i.v., gemcitabine 50 mg/kg i.p.; for tumor size: Day 7, 14, 21, 28, sacrificed day 34
Experimental: Specifically, experimental design of tumor growth inhibition in vivo. MiaPaCa cells (5×10^6) were injected into pancreas of NOD-SCID mice at Day 0. […] Mice were sacrificed on day 34. […] Since fibrosis and angiogenesis are two major issues during tumor progression, we compared the fibrosis and angiogenesis level within each groups.

human chitotriosidase-1 (CHIT1), sequence (Q13231 22-466): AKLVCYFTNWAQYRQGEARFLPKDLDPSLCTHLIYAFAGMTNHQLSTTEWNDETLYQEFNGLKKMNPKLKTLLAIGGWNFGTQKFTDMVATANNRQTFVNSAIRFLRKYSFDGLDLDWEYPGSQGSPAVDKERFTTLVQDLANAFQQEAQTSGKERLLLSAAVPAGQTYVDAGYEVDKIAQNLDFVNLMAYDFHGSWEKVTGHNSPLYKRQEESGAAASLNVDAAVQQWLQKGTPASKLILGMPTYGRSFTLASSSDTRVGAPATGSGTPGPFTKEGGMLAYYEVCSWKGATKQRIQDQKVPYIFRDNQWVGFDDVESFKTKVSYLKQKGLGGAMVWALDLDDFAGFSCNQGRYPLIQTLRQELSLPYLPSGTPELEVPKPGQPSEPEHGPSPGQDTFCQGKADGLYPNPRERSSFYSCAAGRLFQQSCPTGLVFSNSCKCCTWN
CHI3L1-receptor(s) interaction on HCT116, SW480, SW620, PANC1 and MiaPaCa-2, sequence (P36222 22-383): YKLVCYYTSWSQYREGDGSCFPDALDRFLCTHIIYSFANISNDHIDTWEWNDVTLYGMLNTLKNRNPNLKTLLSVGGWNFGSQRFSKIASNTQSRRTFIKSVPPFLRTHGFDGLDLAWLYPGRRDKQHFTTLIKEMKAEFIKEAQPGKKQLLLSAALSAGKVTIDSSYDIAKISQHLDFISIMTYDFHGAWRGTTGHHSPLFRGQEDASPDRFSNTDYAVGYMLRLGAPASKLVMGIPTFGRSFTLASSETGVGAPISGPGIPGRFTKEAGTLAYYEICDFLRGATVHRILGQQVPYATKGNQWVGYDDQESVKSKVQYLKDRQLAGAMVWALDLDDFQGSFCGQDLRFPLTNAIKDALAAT
recombinant CHI3L1 protein, sequence (P36222 22-383): as above
T1 sequence (P36222 22-383): as above

| Molecule | rCHI3L1 binding to cells [1] | binding specificity: recognition of CHI3L1 [2] | binding specificity: recognition of CHIT1 [3] | p-AKT and p-ERK levels induced by rCHI3L1 (PANC1 cells) | p-AKT and p-ERK levels induced by rCHI3L1 (HCT116 and A549 cells) | number of foci (SW480 and SW620 cells) | koff (hCHI3L1/flag-His [4]) | kon (hCHI3L1/flag-His [4]) | epitope cluster (hCHI3L1/flag-His [5]) | competitive binding class, CHI3L1 293R3-2 (hCHI3L1/flag-His [5]) | Epitope Binning Heat Map value, CHI3L1 293R3-2 (hCHI3L1/flag-His [5]) | competitive binding class, CHI3L1 293R3-4 (hCHI3L1/flag-His [5]) | competitive binding class, CHI3L1 R4-4 (hCHI3L1/flag-His [5]) | Epitope Binning Heat Map value, CHI3L1 R4-4 (hCHI3L1/flag-His [5]) | competitive binding class, CHI3L1 R4-54 (hCHI3L1/flag-His [5]) | Epitope Binning Heat Map value, CHI3L1 R4-54 (hCHI3L1/flag-His [5]) | level of CHI3L1 in intratumoral region and plasma (MiaPaCa cells) | infiltrated macrophages in tumor sections (F4/80+, CD206+) (MiaPaCa cells; 5 mg/kg i.v.) | angiogenesis indicated by CD31 expression (MiaPaCa cells) | tumor size (MiaPaCa cells) | other results |
| --- | --- | --- | --- | --- | --- | --- | --- | --- | --- | --- | --- | --- | --- | --- | --- | --- | --- | --- | --- | --- | --- |
| 293R3-2: fully human anti-CHI3L1 IgG1 mAb, Table 1 No. 2; heavy chain SEQ ID NO: 65, light chain SEQ ID NO: 66 (antibody, listed as Homo sapiens) VH: QVQLQESGPGLVEPSGTLSLTCAVSGGSISSSNWWSWVRQHPGKGLEWIGEIYHSGSTNYNPSLRSRVTISVDKSKNQFSLELSSVTAADTAVYYCAGDQRMEDDAFDIWGQGTMVTVSS light: QSALTQPASVSGSPGQSITISCTGTSSDVGGYNYVSWYQQHPGKAPKLMIYDVSNRPSGVSNRFSGSKSGNTASLTISGLQAEDEADYYCSSYTSSSTLYVFGTGTKVTVLGQPKANPTVTLFPPSSEELQANKATLVCLISDFYPGAVTVAWKADGSPVKAGVETTKPSKQSNNKYAASSYLSLTPEQWKSHRSYSCQVTHEGSTVEKTVAPTECS | significantly reduced | specifically recognized CHI3L1 | no other chitinase proteins | inhibited p-AKT and p-ERK levels induced by rCHI3L1 in a dose dependent manner | Inhibition of p-AKT and p-ERK | decreased in a dose-dependent manner | 0.00302 s⁻¹ | 1.08e+06 M⁻¹ s⁻¹ | unidirectional blocking results | *^a | 0.2110 | *^c | *^c | 0.7478 | *^c | 0.7349 | lower than IgG control group | more macrophages other than M2 phenotype | decreased in every treatment groups | smaller than IgG control group | Epitope Binning Heat Map value, CHI3L1 293R3-4 (hCHI3L1/flag-His [5]): 0.6303 |
| R4-4: fully human anti-CHI3L1 IgG1 mAb, Table 1 No. 9; heavy chain SEQ ID NO: 9, light chain SEQ ID NO: 10 (antibody, listed as Homo sapiens) VH: EVQLLESGGGLLQPGGSLRLSCAASGLTFRNYAMTWVRQAPGKGLEWVSTISGNGDETFYADSVKGHFTISRDNSKDTVYLQMNSLRAEDTAVYYCAKGGHYSFFDSWGQGSPVTVSS light: NFMLTQPHSVSESPGKTVTISCTRSSGSIASNYVQWYQQRPGSSPTTVIYEDNQRPSGVPDRFSGSIDSSSNSASLTISGLKTEDEADYYCQSYDSSNYVFGTGTKVTVLGQPKANPTVTLFPPSSEELQANKATLVCLISDFYPGAVTVAWKADGSPVKAGVETTKPSKQSNNKYAASSYLSLTPEQWKSHRSYSCQVTHEGSTVEKTVAPAECS | significantly reduced | specifically recognized CHI3L1 | no other chitinase proteins | inhibited p-AKT and p-ERK levels induced by rCHI3L1 in a dose dependent manner | Inhibition of p-AKT and p-ERK | decreased in a dose-dependent manner | 0.000353 s⁻¹ |  | exclusive epitope | *^c | 0.5680 | *^c | *^a | 0.1232 | *^c | 1.3845 | lower than IgG control group | more macrophages other than M2 phenotype | decreased in every treatment groups | smaller than IgG control group | binding kinetics profile compare to other mAbs (hCHI3L1/flag-His [4]): slower on-rate (kon) and off-rate (koff); spleen metastasis tumor nodules (MiaPaCa cells; 5 mg/kg i.v.): tumor nodules were obviously smaller; fibrosis indicated by α-SMA (MiaPaCa cells; comparing to IgG control and gemcitabine groups): obviously decrease |
| 293R3-4: fully human anti-CHI3L1 IgG1 mAb, Table 1 No. 4; heavy chain SEQ ID NO: 73, light chain SEQ ID NO: 74 (antibody, listed as Homo sapiens) VH: EVQLVQSGAEVKKPGATVKISCKVSGYSFTDYYIHWVQQAPGKGLEWMGFVDPENGETIYAEKFQGRVTITADTSTDTAYMELSSLRSDDTAVYYCATDRDYDDSSGNAFDIWGQGTMVTVSS light: SYELTQPPSVSVSTGQTATITCSGDILGDEYAFWYQQKAGQSPVLVIYLDTRRPSGIPERFSGSNSGDTATLTISETQPVDEAVYFCQGWDSSTALYVFGTGTKVTVLGQPKANPTVTLFPPSSEELQANKATLVCLISDFYPGAVTVAWKADGSPVKAGVETTKPSKQSNNKYAASSYLSLTPEQWKSHRSYSCQVTHEGSTVEKTVAPTECS | significantly reduced | specifically recognized CHI3L1 | no other chitinase proteins | inhibited p-AKT and p-ERK levels induced by rCHI3L1 in a dose dependent manner | Inhibition of p-AKT and p-ERK | decreased in a dose-dependent manner | 0.00722 s⁻¹ | 1.83e+06 M⁻¹ s⁻¹ | unidirectional blocking results | *^b | 0.1221 | *^a | *^c | 1.1089 | *^c | 0.4217 | lower than IgG control group | more macrophages other than M2 phenotype | decreased in every treatment groups | smaller than IgG control group | Epitope Binning Heat Map value, CHI3L1 293R3-4 (hCHI3L1/flag-His [5]): 0.3014 |
